{"source": "the supplement of paper PMC6755084", "parents": {"B1": {"name": "minF1; a variant is named by its letters at N, in order (parent)", "chain": "GAGACCGCAACTGAAAAGTTGTTNNNNAANNNNNGGNTNAATTTCTGCACGTAGAAGCAAAAGGC"}}}
{"variants_of": "B1", "experiment": "fraction ligated after 30 min (ligated reads / total reads); higher = more ligase activity", "settings": "with F1*subA RNA substrate (template-directed ligation), 42 °C", "procedure,_shortened": "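RNAs for minimized ligase ribozyme variants were transcribed with T7 from PCR-amplified oligo-pool templates and purified on gels. Ligated and unligated species were resolved on gels, converted to cDNA with barcoded primers, and read on a MiSeq with core bases filtered at quality ≥30. Fraction ligated per variant is the ratio of ligated reads to total reads.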"}
{"variant": "ATCAAAGGAGT A28G G35T A40G", "fraction ligated": 0.00529}
{"variant": "ATAGTGGATGT A40G", "fraction ligated": 0.0158}
{"variant": "ATCAAAGGAGT A28G G35T", "fraction ligated": 0.00323}
{"variant": "ATAGATGGTGT A40G", "fraction ligated": 0.00815}
{"variant": "AGAAGGATGTG A29T", "fraction ligated": 0.00349}
{"variant": "TCAGATGGAGT T23A G35T A40G", "fraction ligated": 0.0397}
{"variant": "ATCATGGATGT A40G", "fraction ligated": 0.0479}
{"variant": "ATCAAATGGGT A28G", "fraction ligated": 0.00311}
{"variant": "TCAGTGGATTG T23A", "fraction ligated": 0.0201}
{"variant": "ATCAAATGGTG A28G", "fraction ligated": 0.00482}
{"variant": "ATCAATGGAGT A28G G35T", "fraction ligated": 0.0192}
{"variant": "ATAATGGATGT A40G", "fraction ligated": 0.0127}
{"variant": "ACAGATGGTGT A40G", "fraction ligated": 0.00805}
{"variant": "TCAGTGGATGT T23A A40G", "fraction ligated": 0.0264}
{"variant": "ATAGATGGAGT G35T T38G A40T", "fraction ligated": 0.000429}
{"variant": "ACGATGGAGTG", "fraction ligated": 0.00302}
{"variant": "ATCAAGGTGTG", "fraction ligated": 0.00569}
{"variant": "TCGAGGATGTG A29T", "fraction ligated": 0.0105}
{"variant": "ATCAATGGATG A28G", "fraction ligated": 0.00279}
{"variant": "ATCGATGGAGT G35T A40G", "fraction ligated": 0.0726}
{"variant": "ACAGGGATGTG A29T", "fraction ligated": 0.00506}
{"variant": "ATCAAGGAGTG", "fraction ligated": 0.00266}
{"variant": "ATCAATGGATG", "fraction ligated": 0.00435}
{"variant": "TCAGATGGTGT T23A", "fraction ligated": 0.00338}
{"variant": "TCAGATGGTTG", "fraction ligated": 0.00217}
{"variant": "ATAATGATGTG", "fraction ligated": 0.00474}
{"variant": "ATAAGGATGTG A29T", "fraction ligated": 0.0199}
{"variant": "ATCATGGAGTG A28G", "fraction ligated": 0.00478}
{"variant": "ATCAAGGATGT A40G", "fraction ligated": 0.0124}
{"variant": "ATCGATGGTGT A40G", "fraction ligated": 0.0134}
{"variant": "ATCGATGGTTG", "fraction ligated": 0.00328}
{"variant": "ATCAATGGGTG A28G", "fraction ligated": 0.00605}
{"variant": "ATAGATGAGTG", "fraction ligated": 0.00181}
{"variant": "ATCGAGATGTG", "fraction ligated": 0.00673}
{"variant": "ATGAGGATGTG", "fraction ligated": 0.00387}
{"variant": "ATAGAGATGTG", "fraction ligated": 0.00202}
{"variant": "ATCAAAGATGT A28G A40G", "fraction ligated": 0.0398}
{"variant": "ATCATGGATTG", "fraction ligated": 0.00725}
{"variant": "ATAATGGTGTG", "fraction ligated": 0.00284}
{"variant": "ATCAAATTGTG A28G", "fraction ligated": 0.00273}
{"variant": "CGAAGGATGTG A29T", "fraction ligated": 0.0086}
{"variant": "ATCAAAGGGTG A28G", "fraction ligated": 0.0042}
{"variant": "ATAGAGGATGT A40G", "fraction ligated": 0.00594}
{"variant": "ATAGATGGAGT", "fraction ligated": 0.00474}
{"variant": "ATCAATGAGTG", "fraction ligated": 0.003}
{"variant": "TCAGTGGATGT A40G", "fraction ligated": 0.0137}
{"variant": "ATCAAAGGAGT A28G G35T T38G A40T", "fraction ligated": 0.00242}
{"variant": "AGAAGGATGTG T23C A29T", "fraction ligated": 0.0071}
{"variant": "TCAGATGTGTG", "fraction ligated": 0.00186}
{"variant": "ATCAATGGGTG", "fraction ligated": 0.0045}
{"variant": "ATCGATATGTG", "fraction ligated": 0.00384}
{"variant": "ATCAAATGGGT A28G G35T A40G", "fraction ligated": 0.00694}
{"variant": "TCAGATGGAGT T23A G35T T38G A40T", "fraction ligated": 0.00248}
{"variant": "ATCAAATGTTG A28G", "fraction ligated": 0.00332}
{"variant": "ATAGAGGATGT", "fraction ligated": 0.00209}
{"variant": "ATCAAAGGATG A28G", "fraction ligated": 0.0078}
{"variant": "ATAATGGAGTG", "fraction ligated": 0.00187}
{"variant": "TCGATGGATGT T23A", "fraction ligated": 0.0123}
{"variant": "ACGATGATGTG", "fraction ligated": 0.00228}
{"variant": "ATCAATGGAGT A28G A40G", "fraction ligated": 0.00701}
{"variant": "ATGAGGATGTG A29T", "fraction ligated": 0.0247}
{"variant": "ATCAAGGATTG", "fraction ligated": 0.00347}
{"variant": "ATAGAGGATTG", "fraction ligated": 0.00226}
{"variant": "ATCATGATGTG A28G", "fraction ligated": 0.00487}
{"variant": "ATCGTGGATGT", "fraction ligated": 0.00561}
{"variant": "ATCGATGAGTG", "fraction ligated": 0.00373}
{"variant": "ATCGATGGGTG", "fraction ligated": 0}
{"variant": "ATAATGGATGT", "fraction ligated": 0.00257}
{"variant": "ATCAATGTGTG", "fraction ligated": 0.0057}
{"variant": "ATCATGGATTG A28G", "fraction ligated": 0.00743}
{"variant": "ATAGATGGAGT G35T", "fraction ligated": 0.00557}
{"variant": "ACGAGGATGTG", "fraction ligated": 0.00409}
{"variant": "ATCATGGATGT A28G", "fraction ligated": 0.00453}
{"variant": "ATGATGGTGTG", "fraction ligated": 0.00304}
{"variant": "TCAGTGGAGTG", "fraction ligated": 0.00343}
{"variant": "TCAGATGGAGT T23A A40G", "fraction ligated": 0.0153}
{"variant": "ATGATGGATGT A40G", "fraction ligated": 0.0235}
{"variant": "ATCAATATGTG A28G", "fraction ligated": 0.00244}
{"variant": "ATCAAGATGTG", "fraction ligated": 0.00503}
{"variant": "ATCAGGATGTG A28G A29T", "fraction ligated": 0.00511}
{"variant": "ATGATGGATGT", "fraction ligated": 0.00269}
{"variant": "ATCAAGGATTG A28G", "fraction ligated": 0.00187}
{"variant": "ATCGTGGTGTG", "fraction ligated": 0.00665}
{"variant": "ATCAAATGGGT A28G G35A", "fraction ligated": 0.00387}
{"variant": "ATCAAATGGGT A28G G35T", "fraction ligated": 0.00148}
{"variant": "ATCATGGTGTG A28G", "fraction ligated": 0.00296}
{"variant": "ATAGATGATGT A40G", "fraction ligated": 0.00341}
{"variant": "ATCATGGAGTG", "fraction ligated": 0.00635}
{"variant": "ATCAATGGTTG", "fraction ligated": 0.00416}
{"variant": "ATCAAAGGTGT A28G A40G", "fraction ligated": 0.00781}
{"variant": "TCGATGGTGTG T23A", "fraction ligated": 0.00501}
{"variant": "ATCAATGGAGT A28G G35T A40G", "fraction ligated": 0.0474}
{"variant": "ATCAATGGAGT", "fraction ligated": 0.00569}
{"variant": "ATCGATGGATG", "fraction ligated": 0.00346}
{"variant": "ATCAAGGATGT A28G", "fraction ligated": 0.00393}
{"variant": "ACAGTGGAGTG", "fraction ligated": 0.00292}
{"variant": "ATAGGGATGTG A29T", "fraction ligated": 0.0314}
{"variant": "TCAGGGATGTG T23A A29T", "fraction ligated": 0.0174}
{"variant": "ATCAAATGGGT A28G G35A T38G A40T", "fraction ligated": 0.000933}
{"variant": "ATCAAATGGGT A28G G35T T38G A40T", "fraction ligated": 0.00125}
{"variant": "ATCAATGGAGT G35T T38G A40T A41G", "fraction ligated": 0.00079}
{"variant": "TCGATGGAGTG T23A", "fraction ligated": 0.00843}
{"variant": "ATCAAGGAGTG A28G", "fraction ligated": 0.00604}
{"variant": "ATCAAGGATGT", "fraction ligated": 0.00413}
{"variant": "ATCGTGGAGTG", "fraction ligated": 0.00282}
{"variant": "TCGAGGATGTG T23A", "fraction ligated": 0}
{"variant": "ATCGATGATGT A40G", "fraction ligated": 0.0304}
{"variant": "ATCATGGATGT A28G A40G", "fraction ligated": 0.0551}
{"variant": "ATCAAAGGTGT A28G", "fraction ligated": 0.00198}
{"variant": "ATCATGGTGTG", "fraction ligated": 0.00812}
{"variant": "ACAGATGTGTG", "fraction ligated": 0.00297}
{"variant": "ATCAAATGAGT A28G A40G", "fraction ligated": 0.00391}
{"variant": "ACGATGGATGT A40G", "fraction ligated": 0.0424}
{"variant": "ATCAAAGTGTG A28G", "fraction ligated": 0.00347}
{"variant": "ATAAGGATGTG", "fraction ligated": 0.00241}
{"variant": "ATCGTGATGTG", "fraction ligated": 0.00711}
{"variant": "ATCAATGGTGT", "fraction ligated": 0.00377}
{"variant": "CGAAGGATGTG T23A A29T", "fraction ligated": 0.00782}
{"variant": "TCAGATGTGTG T23A", "fraction ligated": 0.00194}
{"variant": "ACAGATGGTGT", "fraction ligated": 0.002}
{"variant": "TCGATGATGTG", "fraction ligated": 0.00384}
{"variant": "ATCAATGGTGT A28G", "fraction ligated": 0.00146}
{"variant": "ATCAAGGTGTG A28G", "fraction ligated": 0.00322}
{"variant": "ATAGAGGAGTG", "fraction ligated": 0.00165}
{"variant": "ACGATGGTGTG", "fraction ligated": 0.00555}
{"variant": "TCGATGGATGT A40G", "fraction ligated": 0.0635}
{"variant": "ATCGATGTGTG", "fraction ligated": 0.00321}
{"variant": "ATCAATGGTGT A40G", "fraction ligated": 0.00841}
{"variant": "ATCAATGGAGT A40G", "fraction ligated": 0.00544}
